For assay [1], the target named is SARS-CoV-2 Spike RBD (SARS-CoV-2), P0DTC2.
The target is the same in assay [2]. This is another data set of the same source.
Assay [3] shares this target. This is another data set of the same source.
Assay [4] has the same target. The source holds these as a separate data set.
Assay [5] has the same target. This is another data set of the same source.
The target is the same in assay [6]. This is another data set of the same source.
For assay [7] the target is unchanged. The source holds these as a separate data set.

Read-outs that look alike come from different tables or passages of the source.

B1: R2G3-His (peptide)
chain: GGGGAMGSEGDKTCPDGYEHTCGCIGGCGCKRSACIGALCCQASLGGWLSDGETYTGGGGSGGGGSHHHHHH
modifications: not checked
B1: the Adjusted Binding Rate in assay [1] is 6.42 nm/s; in assay [2], 9.51 nm/s; in assay [3], 34.6 nm/s; in assay [4] it was 5.5 nm/s; in assay [5], 32.8 nm/s; in assay [6], 3.4 nm/s. In assay [7], this molecule had an Adjusted Binding Rate of 5.39 nm/s.
